The record followed here is PMC10681739, “High-throughput data and modeling reveal insights into the mechanisms of cooperative DNA-binding by transcription factor proteins”.

This data set concerns the target RUNX1 (Homo sapiens, UniProt Q01196). The experiment in a line: gcPBM; 2 nM RUNX1. The settings on record: tags: N-terminal GST (pDEST15), kept (PMC6008103); label: surface-attached array probe.

Sequence of RUNX1 (Q01196 whole entry): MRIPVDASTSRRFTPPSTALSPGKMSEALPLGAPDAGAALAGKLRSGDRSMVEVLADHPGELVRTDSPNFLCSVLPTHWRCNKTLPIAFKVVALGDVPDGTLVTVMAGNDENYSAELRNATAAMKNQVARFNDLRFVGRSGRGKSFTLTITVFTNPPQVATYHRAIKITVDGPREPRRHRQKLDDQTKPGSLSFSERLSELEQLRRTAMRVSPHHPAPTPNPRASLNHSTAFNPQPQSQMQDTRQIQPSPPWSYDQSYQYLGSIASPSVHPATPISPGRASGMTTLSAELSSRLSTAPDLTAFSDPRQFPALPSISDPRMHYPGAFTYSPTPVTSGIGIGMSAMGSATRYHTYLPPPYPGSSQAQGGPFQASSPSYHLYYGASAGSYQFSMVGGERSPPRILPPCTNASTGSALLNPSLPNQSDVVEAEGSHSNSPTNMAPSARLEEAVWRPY

B1: Table S3 C row 106 (dsDNA)
DNA 1: ACCAGGCGACGATGCCGGAACGCGCAAGTACGCGAG
DNA 2: CTCGCGTACTTGCGCGTTCCGGCATCGTCGCCTGGT
Regarding B1, the binding signal was 676 PBM fluorescence, median of replicate spots.

B2: Table S3 C row 27 (dsDNA)
DNA 1: TGCGCCGCGCCCCGGGTTCCGGAATGCACTCTGAAC
DNA 2: GTTCAGAGTGCATTCCGGAACCCGGGGCGCGGCGCA
Turning to B2, the binding signal is 659 PBM fluorescence, median of replicate spots.

B3: Table S3 C row 128 (dsDNA)
DNA 1: GGTCCCGCCCCTGGCCGGAAGTTCTGGCGGCGGAGC
DNA 2: GCTCCGCCGCCAGAACTTCCGGCCAGGGGCGGGACC
Take B3: the binding signal was 714 PBM fluorescence, median of replicate spots.

B4: Table S3 C row 121 (dsDNA)
DNA 1: CACTCATTCCAGATCAGGAAGTGATCAGTGCCTCAA
DNA 2: TTGAGGCACTGATCACTTCCTGATCTGGAATGAGTG
Turning to B4, the binding signal was 680 PBM fluorescence, median of replicate spots.

B5: Table S3 C row 79 (dsDNA)
DNA 1: TTGCAAGTACACCTGCATCCGGTGGCATGTTTTAGT
DNA 2: ACTAAAACATGCCACCGGATGCAGGTGTACTTGCAA
For the molecule B5, the binding signal is 712 PBM fluorescence, median of replicate spots.

B6: Table S3 B row 116 (dsDNA)
DNA 1: GTAGTTCCTTGTCTTTCCTTCTGCCGCCGCAGGCCT
DNA 2: AGGCCTGCGGCGGCAGAAGGAAAGACAAGGAACTAC
On to B6, for which the binding signal is 1720 PBM fluorescence, median of replicate spots.

B7: Table S3 B row 3800 (dsDNA)
DNA 1: GACCCAGATACCACACCTACCCTGCTGCCTTTTCTA
DNA 2: TAGAAAAGGCAGCAGGGTAGGTGTGGTATCTGGGTC
In the case of B7, the binding signal is 1960 PBM fluorescence, median of replicate spots.

B8: Table S3 C row 194 (dsDNA)
DNA 1: TGGGCAAGCCTTGGGCTTCCGGAGCCAAAAGGCCCA
DNA 2: TGGGCCTTTTGGCTCCGGAAGCCCAAGGCTTGCCCA
For B8, the binding signal was 610 PBM fluorescence, median of replicate spots.

B9: Table S3 B row 1078 (dsDNA)
DNA 1: ATTTGTCACCAAACCACAGAGAGGACATGATTGTAA
DNA 2: TTACAATCATGTCCTCTCTGTGGTTTGGTGACAAAT
Consider B9, for which the binding signal was 1740 PBM fluorescence, median of replicate spots.

B10: Table S3 C row 20 (dsDNA)
DNA 1: TACCTCTGTAACAGGTTTCCTGTCCCTGCCCAGCTT
DNA 2: AAGCTGGGCAGGGACAGGAAACCTGTTACAGAGGTA
Regarding B10, the binding signal is 673 PBM fluorescence, median of replicate spots.

B11: Table S3 C row 132 (dsDNA)
DNA 1: GAGAGACCTGGGCCACTTCCGGGAGAACCCGAGCTT
DNA 2: AAGCTCGGGTTCTCCCGGAAGTGGCCCAGGTCTCTC
As to B11, the binding signal was 721 PBM fluorescence, median of replicate spots.

B12: Table S3 C row 8 (dsDNA)
DNA 1: GCCAGGCCGGCGGCGCGGAAGGTCTCCTGTGCCTGC
DNA 2: GCAGGCACAGGAGACCTTCCGCGCCGCCGGCCTGGC
On to B12, for which the binding signal was 689 PBM fluorescence, median of replicate spots.

B13: Table S3 B row 808 (dsDNA)
DNA 1: TGTGTTAGTGGTTTTCTCTTACGGCAGGCAGTGGGC
DNA 2: GCCCACTGCCTGCCGTAAGAGAAAACCACTAACACA
B13: the binding signal was 2040 PBM fluorescence, median of replicate spots.

B14: Table S3 C row 65 (dsDNA)
DNA 1: TTCACTGAACGGCTTCATCCTGTGCTTTGGGAGGCA
DNA 2: TGCCTCCCAAAGCACAGGATGAAGCCGTTCAGTGAA
Take B14: the binding signal is 718 PBM fluorescence, median of replicate spots.

B15: Table S3 B row 1562 (dsDNA)
DNA 1: CCACACCCACAAGGCCAGCCTCAATTCCTCACTCCT
DNA 2: AGGAGTGAGGAATTGAGGCTGGCCTTGTGGGTGTGG
As to B15, the binding signal is 1900 PBM fluorescence, median of replicate spots.

B16: Table S3 C row 198 (dsDNA)
DNA 1: GGCAGCAGCCTTCGGCTTCCGCTTTTCGGCTTTCGC
DNA 2: GCGAAAGCCGAAAAGCGGAAGCCGAAGGCTGCTGCC
Consider B16, for which the binding signal is 686 PBM fluorescence, median of replicate spots.

B17: Table S3 C row 74 (dsDNA)
DNA 1: GTCATCTCGTTGACACTTCCGCTGACCCGTGCAGTT
DNA 2: AACTGCACGGGTCAGCGGAAGTGTCAACGAGATGAC
B17: the binding signal was 697 PBM fluorescence, median of replicate spots.

B18: Table S3 B row 2805 (dsDNA)
DNA 1: AGCTTAATGCGGTTGGAGAACACCCTGTCTTATTGA
DNA 2: TCAATAAGACAGGGTGTTCTCCAACCGCATTAAGCT
Consider B18, for which the binding signal is 1930 PBM fluorescence, median of replicate spots.

B19: Table S3 B row 1521 (dsDNA)
DNA 1: CTCCGCCTTTCACCTCCTAGTAACCGCCCTCCCTTG
DNA 2: CAAGGGAGGGCGGTTACTAGGAGGTGAAAGGCGGAG
Regarding B19, the binding signal is 2240 PBM fluorescence, median of replicate spots.

B20: Table S3 B row 1720 (dsDNA)
DNA 1: GCCTGCGGTGTGGACTCGCATCATGTCCTCTTTCTG
DNA 2: CAGAAAGAGGACATGATGCGAGTCCACACCGCAGGC
Consider B20, for which the binding signal is 1680 PBM fluorescence, median of replicate spots.

B21: Table S3 C row 101 (dsDNA)
DNA 1: AGTCAGAAGTTTCAGCGGAAATTGAAGCGCGGCCCT
DNA 2: AGGGCCGCGCTTCAATTTCCGCTGAAACTTCTGACT
Regarding B21, the binding signal was 665 PBM fluorescence, median of replicate spots.

B22: Table S3 B row 232 (dsDNA)
DNA 1: TGTTGTGTGGTTTCAGAGATACGTCCTTGGGTTGCC
DNA 2: GGCAACCCAAGGACGTATCTCTGAAACCACACAACA
For the molecule B22, the binding signal is 1750 PBM fluorescence, median of replicate spots.

B23: Table S3 B row 3109 (dsDNA)
DNA 1: ACTCCACCTACCCACAAAACGCACTGCCTCAGAAGC
DNA 2: GCTTCTGAGGCAGTGCGTTTTGTGGGTAGGTGGAGT
Regarding B23, the binding signal is 2010 PBM fluorescence, median of replicate spots.

B24: Table S3 C row 100 (dsDNA)
DNA 1: TGGCTAGGGGCAGGGCTTCCGGCCTCGAACTTTAAC
DNA 2: GTTAAAGTTCGAGGCCGGAAGCCCTGCCCCTAGCCA
For B24, the binding signal is 688 PBM fluorescence, median of replicate spots.

B25: Table S3 B row 3059 (dsDNA)
DNA 1: AGGCTGTGGTTATCTGCAAACAGCCCCCGTCCATCC
DNA 2: GGATGGACGGGGGCTGTTTGCAGATAACCACAGCCT
For the molecule B25, the binding signal was 1590 PBM fluorescence, median of replicate spots.

B26: Table S3 C row 29 (dsDNA)
DNA 1: CCGGTCTCGCGATAGCGGAAAGGGCTGTACCATCTG
DNA 2: CAGATGGTACAGCCCTTTCCGCTATCGCGAGACCGG
In the case of B26, the binding signal is 697 PBM fluorescence, median of replicate spots.

B27: Table S3 B row 2632 (dsDNA)
DNA 1: TCTGTTTTGTGGGTTCCCTGCCCCCCTTCGGCCTTT
DNA 2: AAAGGCCGAAGGGGGGCAGGGAACCCACAAAACAGA
As to B27, the binding signal was 2250 PBM fluorescence, median of replicate spots.

B28: Table S3 B row 2151 (dsDNA)
DNA 1: CTAAGGCTGTGGTTTGTACCCTAGCAGCAAAGGCAG
DNA 2: CTGCCTTTGCTGCTAGGGTACAAACCACAGCCTTAG
Regarding B28, the binding signal is 2080 PBM fluorescence, median of replicate spots.

B29: Table S3 B row 594 (dsDNA)
DNA 1: CCCCTCCCCACACCACAACAAACCTGATCCTTGCGC
DNA 2: GCGCAAGGATCAGGTTTGTTGTGGTGTGGGGAGGGG
On to B29, for which the binding signal is 1700 PBM fluorescence, median of replicate spots.

B30: Table S3 C row 11 (dsDNA)
DNA 1: AAAAGCATCCCCAGACTTCCTGTTGGGAGCTCTCTG
DNA 2: CAGAGAGCTCCCAACAGGAAGTCTGGGGATGCTTTT
Consider B30, for which the binding signal is 697 PBM fluorescence, median of replicate spots.

B31: Table S3 B row 2476 (dsDNA)
DNA 1: CAGGTCACCGCAGTCCCCACCACTGCCTGTTATTGT
DNA 2: ACAATAACAGGCAGTGGTGGGGACTGCGGTGACCTG
As to B31, the binding signal was 1870 PBM fluorescence, median of replicate spots.

B32: Table S3 B row 736 (dsDNA)
DNA 1: CTCTGAACCGCATGATCTCTAAGACCACTTGCTGTT
DNA 2: AACAGCAAGTGGTCTTAGAGATCATGCGGTTCAGAG
With B32, the binding signal was 1820 PBM fluorescence, median of replicate spots.

B33: Table S3 B row 1567 (dsDNA)
DNA 1: ACGGAGCTGTGGTTTAACGTTTCAGGTTCGTGGCTA
DNA 2: TAGCCACGAACCTGAAACGTTAAACCACAGCTCCGT
As for B33, the binding signal was 1650 PBM fluorescence, median of replicate spots.

B34: Table S3 B row 244 (dsDNA)
DNA 1: GGTCTTTTCTGTGGTTCTGTCACCTCCTTTGTAAGT
DNA 2: ACTTACAAAGGAGGTGACAGAACCACAGAAAAGACC
B34: the binding signal is 2300 PBM fluorescence, median of replicate spots.

B35: Table S3 B row 1286 (dsDNA)
DNA 1: CCCAATTGCCTTTGCTCTGCTGTCTGCCAACCGCAA
DNA 2: TTGCGGTTGGCAGACAGCAGAGCAAAGGCAATTGGG
B35: the binding signal is 1860 PBM fluorescence, median of replicate spots.

B36: Table S3 B row 1244 (dsDNA)
DNA 1: GGAACCCGCAGAAGCCCCGCCTCCCGTAAGCGGAGC
DNA 2: GCTCCGCTTACGGGAGGCGGGGCTTCTGCGGGTTCC
On to B36, for which the binding signal is 1640 PBM fluorescence, median of replicate spots.

B37: Table S3 C row 188 (dsDNA)
DNA 1: GCAAGCGGGCCTGGGCGGATGTCTCGGGCGCGTCGG
DNA 2: CCGACGCGCCCGAGACATCCGCCCAGGCCCGCTTGC
Take B37: the binding signal was 720 PBM fluorescence, median of replicate spots.

B38: Table S3 B row 2568 (dsDNA)
DNA 1: GTCGCCTGCGGTGACTCAGCTCTTACGGTCACCGCC
DNA 2: GGCGGTGACCGTAAGAGCTGAGTCACCGCAGGCGAC
As to B38, the binding signal was 1800 PBM fluorescence, median of replicate spots.

B39: Table S3 C row 70 (dsDNA)
DNA 1: GGCCGCGCCCAGACCCGGAAGCGGGGCCGTCACGTG
DNA 2: CACGTGACGGCCCCGCTTCCGGGTCTGGGCGCGGCC
As to B39, the binding signal is 680 PBM fluorescence, median of replicate spots.

B40: Table S3 B row 2668 (dsDNA)
DNA 1: TACAGTCTCTGTGGTTTACTGAGAGGAGGTGGTTCT
DNA 2: AGAACCACCTCCTCTCAGTAAACCACAGAGACTGTA
As to B40, the binding signal is 2160 PBM fluorescence, median of replicate spots.

B41: Table S3 B row 887 (dsDNA)
DNA 1: CACCCTGCCACCTCCCTAAACTCCCCGCACAGGCCG
DNA 2: CGGCCTGTGCGGGGAGTTTAGGGAGGTGGCAGGGTG
Turning to B41, the binding signal is 1620 PBM fluorescence, median of replicate spots.

B42: Table S3 B row 3020 (dsDNA)
DNA 1: TTTTATCGTCCGCGAGCCCTCATCCCACAACTCTTC
DNA 2: GAAGAGTTGTGGGATGAGGGCTCGCGGACGATAAAA
On to B42, for which the binding signal is 1790 PBM fluorescence, median of replicate spots.
